The nature of the data set: protein stability index of a GFP-peptide fusion (GPS, HEK-293T) (PSI 1-6); higher = more stable.
[1] abbreviates: treatment: DMSO, c terminus: a fixed tail appended.
[2] abbreviates: treatment: MLN4924 1 uM, 8 h, c terminus: a fixed tail appended.

± gives the standard deviation.
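Also: 24-mer peptide tiles fused after GFP, lentivirally expressed, FACS-sorted into six equal bins by GFP/DsRed ratio, decoded by Illumina sequencing, PSI is the read-weighted mean bin number.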

For the sequence MYHYLQFAYYKLNDVRQAARSAAS [P3H4], the protein stability index by setting is: under setting [1], 2.05 ± 0.42; under setting [2], 2.33 ± 0.37.
For SRDSAAITHSTYSLPASSYSQDPV [NOL4L] the same measures were 4.54 ± 0.12 and 4.62 ± 0.15.
GVKLEGKVPMHKLFLEMLEAMMD [ESRRA] had a protein stability index (treatment: DMSO, c terminus: native) of 2.58 ± 0.74 and a protein stability index (treatment: MLN4924 1 uM, 8 h, c terminus: native) of 2.66 ± 0.69.
Regarding SLSSTATVLLVLEDEDPEEMPKSS [PCDHGC5], the protein stability index came out at 4.24 ± 0.12 under setting [1] and 4.08 ± 0.32 under setting [2].
With LRHDEVRTYFHEFGHVMHQICAQV [NLN], the protein stability index came to 2.31 ± 0.12 under setting [1] and 2.22 ± 0.26 under setting [2].
As for RDVKKTGFVFGTTLIMLLSLAAFS [RTN3], the protein stability index was determined as 3.03 ± 0.43 under setting [1] and 3.19 ± 0.39 under setting [2].
Turning to RQLYAVNRRLRALEEQGATWRHRE [FATE1], the protein stability index was found to be 3.52 ± 0.3 under setting [1] and 3.56 ± 0.15 under setting [2].
As to GTHPEDHQGHSDQHHHHHHHHHGR [RHOBTB2], the protein stability index under setting [1] was found to be 4.9 ± 0.16 and the protein stability index under setting [2] came out at 5.01 ± 0.26.
In the case of KSSGKHYGQFTCEGCKSFFKRSVR [NR2F2], the protein stability index reads like this: under setting [1], 2.37 ± 0.18; under setting [2], 2.68 ± 0.41.
The sequence LTINPAKRITAHEALKHPWVCQRS [CAMK2B] displayed a protein stability index under setting [1] of 2.55 ± 0.29 and a protein stability index under setting [2] of 2.95 ± 0.16.
For the sequence VTNPHSSQWKDPALSQLICFCRES [GADD45A], the protein stability index runs as follows: under setting [1], 2.5 ± 0.24; under setting [2], 2.67 ± 0.33.
Take ESKLLRDLSAANEKNLLLQNQVDE [LRRC45]: the protein stability index is, setting by setting: under setting [1], 5.37 ± 0.2; under setting [2], 5.15 ± 0.34.
In the case of LSQLRVLCCEWLRPEKHTKEQILE [ZNF232], the protein stability index by setting is: under setting [1], 2.37 ± 0.35; under setting [2], 2.2 ± 0.22.
As to FPESETKECPFRVNKVCGAACSSK [SERPINB5], the protein stability index by setting is: under setting [1], 2.8 ± 0.56; under setting [2], 3.55 ± 0.66.
Take MDVERQETPEWLDSDSCQKCDQPF [WDFY2]: the protein stability index was 5.11 ± 0.25 under setting [1] and 5.08 ± 0.15 under setting [2].
In the same order, the values of FTCDLQHTETGEEVLRMCVAVKKK [VPS39] are 2.84 ± 0.3 and 2.96 ± 0.4.
For the sequence EVKKKGKMKKLGQAMEEDLIVGLQ [HDAC6], the protein stability index by setting is: under setting [1], 4.55 ± 0.72; under setting [2], 4.75 ± 0.14.
In the same order, the values of TPQEPWPGPTAPSPTSRPPWAVDP [PDLIM7] are 4.19 ± 0.21 and 4.28 ± 0.093.
In the case of RHDGYATNDGNHPSCQETRDYAPP [RBMY1A1], the protein stability index under setting [1] came out at 5 ± 0.31 and the protein stability index under setting [2] was 4.93 ± 0.084.
Turning to QLHIFNTLRSHLIDKGMLTSTTED [CDS2], the protein stability index is 2.93 ± 0.2 under setting [1] and 3.09 ± 0.26 under setting [2].
As for LPSLVLARLVFVPLLLLCNIKPRR [SLC29A1], the protein stability index worked out at 2.79 ± 0.57 under setting [1] and 2.73 ± 0.41 under setting [2].
RYFSAWAEDDHMLIQNEYRNGGSL [WEE1]: the protein stability index is, setting by setting: under setting [1], 2.67 ± 0.5; under setting [2], 2.32 ± 0.4.
For CAERLQSEEQVSKNLFGPPLESAF [FCHO1], the protein stability index runs as follows: under setting [1], 3.36 ± 1.1; under setting [2], 3.58 ± 0.52.
As to DLLKKAKFHHSDCLSTWLLHFIAT [RHOBTB3], the protein stability index is, setting by setting: under setting [1], 2.37 ± 0.44; under setting [2], 2.34 ± 0.41.
PREALSRLQELCHGWLRPEMRTKE [ZNF263]: the protein stability index turned out to be 3.31 ± 0.23 under setting [1] and 3.55 ± 0.28 under setting [2].
VELGKQKKKYMPYNHQHKYFFLIG [FADS1]: the protein stability index is, setting by setting: under setting [1], 2.29 ± 0.94; under setting [2], 3.12 ± 0.48.
For LTNIWMARTCAKQNINAPAPATTS [C22orf31] the same measures were 2.51 ± 0.27 and 2.59 ± 0.15.
For the sequence KSTSIQVIVKEGGLKLIQIQDNGT [MLH1], the protein stability index under setting [1] is 2.18 ± 0.53 and the protein stability index under setting [2] came to 2.54 ± 0.56.
With DIELDAARGDAVCTACGSVLEDNI [BRF1], the protein stability index reads like this: under setting [1], 4.88 ± 0.15; under setting [2], 5.01 ± 0.37.
For GPSRPAEKPPRPEAKSAQPADGWK [GCH1], the protein stability index is 5.17 ± 0.082 under setting [1] and 5.16 ± 0.18 under setting [2].
YIEMQTDPANCDYVIVSGAQRKEE [YJU2B] had a protein stability index under setting [1] of 4.2 ± 0.2 and a protein stability index under setting [2] of 4.57 ± 0.36.
In the case of INGLRRVLDELTLARADLEMQIEN [KRT17], the protein stability index reads like this: under setting [1], 3.1 ± 0.45; under setting [2], 2.82 ± 0.38.
Consider PNFNFNISHQGDYAVLAAEPELQV [AASDHPPT], for which the protein stability index runs as follows: under setting [1], 4 ± 0.09; under setting [2], 3.93 ± 0.39.

The values above are taken from the supplement of paper PMC10567573.
